± gives the uncertainty stated by the source.
Assay: protein stability index of a GFP-peptide fusion (yeast GPS) (PSI 1-4); higher = more stable; sorted into four equal gates, so the index is relative within each strain
In short: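 The protein stability index of a peptide was calculated by multiplying its read frequency in each gate by that gate's number and adding the products. The peptides were tiled 17-residue stretches of yeast proteins, fused downstream of GFP on a Cherry-expressing plasmid and carried in yeast as a pooled library. Mid-log cultures in leucine-free medium were sorted into four equal gates by GFP/Cherry ratio, and each gate's plasmids were PCR-amplified and Illumina-sequenced.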

Sequence | protein stability index (doa10∆) | protein stability index (pdr5∆) | protein stability index (san1∆) | protein stability index (ubr1∆)
SVVSQIEKGSTFGINLI [FAS1] | 3.09 ± 0.2 | 3.06 ± 0.11 | 3 ± 0.08 | 3.26 ± 0.076
IEKTESVDKKVDSGEER [SWI3] | 3.26 ± 0.098 | 3.3 ± 0.14 | 3.36 ± 0.055 | 3.46 ± 0.066
RAIRSEKYGKQVYDLLK [BRR2] | – | – | 2.94 ± 0.18 | 3.26 ± 0.13
SPMGNAYSMGAQNQGGQ [PGD1] | 2.57 ± 0.062 | 2.91 ± 0.069 | 2.91 ± 0.064 | 2.71 ± 0.043
SKTGIIAYSDSQSSNAN [SIN4] | 2.63 ± 0.043 | 2.6 ± 0.043 | 2.68 ± 0.044 | 2.53 ± 0.058
LPPPPPPPGLDELETKA [PRP8] | 3.13 ± 0.056 | 3.15 ± 0.057 | 3.25 ± 0.05 | 3.17 ± 0.05
KAKSHFTNIISRNKALE [YJL039C/NUP192] | 2.66 ± 0.079 | 2.01 ± 0.053 | 2.39 ± 0.13 | 2.68 ± 0.075
NGNITYSEEPREKVRKL [FAS2] | 2.99 ± 0.17 | 3.54 ± 0.18 | 3.3 ± 0.2 | 3.53 ± 0.18
LKDIVGQTSRTVTPAPN [ITC1] | 2.97 ± 0.064 | 3 ± 0.041 | 2.9 ± 0.049 | 2.95 ± 0.044
RSKGKQNRPYNHPELQG [RPC17] | 2.08 ± 0.047 | 2.32 ± 0.082 | 2.03 ± 0.088 | 1.94 ± 0.053
VANVKDLETLTMHTKTY [RPL32] | 3.08 ± 0.13 | 3.01 ± 0.11 | 2.98 ± 0.075 | 2.95 ± 0.077
QIMQLKKICNHPFVFEE [SNF2] | 2.77 ± 0.075 | 2.38 ± 0.053 | 2.53 ± 0.063 | 2.55 ± 0.059
HDELIDSIPRDVAYLLK [YGL172W/NUP49] | 2.49 ± 0.12 | 2.82 ± 0.13 | 2.89 ± 0.055 | 3.05 ± 0.095
FFTIDHFIQKLHTARKI [SIR2] | 1.75 ± 0.09 | 1.71 ± 0.1 | 1.11 ± 0.12 | 1.37 ± 0.12
ETQPGCNEEQTLEAKIG [RPO31] | 3.21 ± 0.073 | 3.33 ± 0.069 | 2.96 ± 0.057 | 3.24 ± 0.053
NVTKSSVGVIINKMVGN [RPL21A] | 2.17 ± 0.099 | 2.98 ± 0.11 | 2.46 ± 0.19 | 2.91 ± 0.13
MSAPQAKILSQAPTELE [RPS7A] | 2.79 ± 0.08 | 2.9 ± 0.068 | 2.41 ± 0.1 | 2.53 ± 0.073
VILFDSDWNPQADLQAM [ISW2] | 3.12 ± 0.088 | 2.38 ± 0.08 | 2.84 ± 0.11 | 2.15 ± 0.057
DLCSLKPYVDRFAFSVI [DIS3] | 1.93 ± 0.05 | 1.87 ± 0.052 | 1.93 ± 0.065 | 2.27 ± 0.04
PIPIAVLDSYTPSTNEP [FAS1] | 2.78 ± 0.07 | 2.59 ± 0.063 | 2.69 ± 0.074 | 2.85 ± 0.041
GIIVAVDSRATAGNWVA [PRE2] | 1.14 ± 0.064 | 1.46 ± 0.079 | 1.24 ± 0.13 | 1.54 ± 0.082
ESGLRPVSLLNSQLVGK [PCI8] | 3.31 ± 0.13 | 3.43 ± 0.096 | 3.27 ± 0.061 | 3.09 ± 0.27
RRREQTTYSVDDYYKEI [ISW2] | 2 ± 0.044 | 2.55 ± 0.035 | 1.91 ± 0.071 | 2.87 ± 0.044
QLEYKRGEIREIEQVCK [MED7] | 1.49 ± 0.11 | 1.53 ± 0.069 | 2.2 ± 0.18 | 1.45 ± 0.07
AKLNHLKKLEKFMELER [SWI3] | 2.9 ± 0.064 | 2.83 ± 0.069 | 3.03 ± 0.054 | 2.66 ± 0.058
QLIKVAVHNGDRKHVAA [RPL9B] | 2.09 ± 0.054 | 2.48 ± 0.059 | 2.28 ± 0.061 | 2.65 ± 0.027
NLFSSTGFKGLLIELQA [SRB2] | 2.6 ± 0.12 | 2.87 ± 0.069 | 2.92 ± 0.058 | 2.94 ± 0.042
PAAESKIFTPNLLQISA [SNF5] | 1.72 ± 0.12 | 2.04 ± 0.11 | 2.09 ± 0.14 | 1.55 ± 0.099

Sequence | protein stability index (doa10∆) | protein stability index (pdr5∆) | protein stability index (san1∆) | protein stability index (ubr1∆)
TRRFVNVTLVNGKRRMN [RPS30A] | 1.67 ± 0.055 | 1.51 ± 0.038 | 1.73 ± 0.084 | 2.37 ± 0.038
TFEQFKDTIVKEAEDKT [RPC37] | – | – | – | 2.43 ± 0.29
NVKNDVSFNDSQSMVTN [YIL149C/MLP2] | 3.1 ± 0.054 | 3.37 ± 0.081 | 3.07 ± 0.067 | 3.3 ± 0.04
SAVVGPNGSGKSNVIDS [SMC4] | 3.13 ± 0.049 | 2.87 ± 0.043 | 3.06 ± 0.06 | 2.84 ± 0.033
HDAPRGLFPFESYKPSV [SWI3] | 3.31 ± 0.091 | 3.08 ± 0.11 | 3.15 ± 0.11 | 3.1 ± 0.079
ISCPLIGVIQLAHYVVT [FAS1] | 1.57 ± 0.072 | 1.2 ± 0.041 | 1.24 ± 0.093 | 1.27 ± 0.042
KERIVRAFLIEEQKIVK [RPL34B] | – | – | – | 2.74 ± 0.12
FLLSAMTMASKSLEVVN [NSL1] | 1.4 ± 0.08 | 1.45 ± 0.069 | 1.54 ± 0.15 | 1.61 ± 0.047
KRYRLKESQLPRIQRAD [RPB5] | 2.86 ± 0.17 | 3.16 ± 0.15 | 3.02 ± 0.1 | 3.07 ± 0.082
QFLQLDNDGFSFLMRQF [ECM29] | 1.33 ± 0.042 | 1.54 ± 0.061 | 1.45 ± 0.072 | 1.83 ± 0.051
QNVTSETHSKKRKKEAN [ITC1] | 2.92 ± 0.075 | 3.02 ± 0.075 | 2.94 ± 0.041 | 3.08 ± 0.073
QWSATWIAMRREKRDRT [PRP8] | 2.23 ± 0.089 | 2.64 ± 0.081 | 2.76 ± 0.18 | 2.73 ± 0.095
KAGKVAVVVRGRYAGKK [RPL27A] | 2.19 ± 0.083 | 2.17 ± 0.053 | 2.19 ± 0.097 | 1.78 ± 0.086
GSQIKFIVVPDLLKNAP [SMD3] | 2.05 ± 0.052 | 2.13 ± 0.047 | 1.8 ± 0.055 | 1.8 ± 0.038
DLGITEKNDQNNDDDDN [MCD1] | – | 2.97 ± 0.14 | – | 3.41 ± 0.24
NNGSSDKSLDSSNASFN [MED1] | 2.92 ± 0.13 | 3.04 ± 0.15 | 3.08 ± 0.22 | 2.98 ± 0.12
FYSTNSQYFKFKNDFNS [RPN9] | 2.1 ± 0.067 | 2.11 ± 0.054 | 2.1 ± 0.094 | 2.5 ± 0.053
AGKWFDPVLDWRKSDRE [SIR4] | 3.17 ± 0.088 | 3.44 ± 0.087 | 2.71 ± 0.14 | 3.18 ± 0.066
TSKPVFSFGAATPSAKE [YLR335W/NUP2] | 2.95 ± 0.046 | 3.08 ± 0.053 | 3.08 ± 0.043 | 3.06 ± 0.041
YEYGAVSVLLISKDCSA [BRR2] | 2.12 ± 0.047 | 1.97 ± 0.043 | 1.91 ± 0.081 | 1.81 ± 0.041
IELIDYDKLPAGQNATV [RET1] | 2.41 ± 0.074 | 1.95 ± 0.079 | 1.67 ± 0.2 | 2.4 ± 0.068
VNITKFSKFERSKSSHK [SKI6] | 2.73 ± 0.095 | 2.65 ± 0.059 | 2.76 ± 0.064 | 2.62 ± 0.048
FPRNGKAPEAEQVLSAA [RPL13A] | 3.14 ± 0.098 | 2.76 ± 0.093 | 3.13 ± 0.1 | 2.77 ± 0.05
DIEVPDVNALKFNNTQR [SNF12] | 2.97 ± 0.1 | 3.29 ± 0.06 | 2.98 ± 0.047 | 3.09 ± 0.051
LYVPRKCSATNRIIKAD [RPS21A] | 3.08 ± 0.27 | 1.83 ± 0.2 | 2.13 ± 0.12 | 2.19 ± 0.15
LHPYNSRGLFEKKLMQD [YDL116W/NUP84] | 2.89 ± 0.18 | 3.28 ± 0.16 | 2.86 ± 0.1 | 2.91 ± 0.13
TVHSKSRTRAHAQSKRE [RPL19A] | 3.19 ± 0.074 | 3.07 ± 0.079 | 2.96 ± 0.068 | 3.19 ± 0.069
